Data published in article PMC8251803.

Molecular target: cytochrome c oxidase from Aquifex aeolicus (AaCcO), protomer of subunits CoxA2, CoxB2 and IIa (Aquifex aeolicus) (UniProt O67937)
Assay: cryo-EM structure; single-particle cryo-EM with 3D classification (RELION) of the sample purified from native A. aeolicus membranes by anion exchange and size-exclusion chromatography; fractions with a dominant band around 242 kDa in Blue Native PAGE; two classes of particles (dimeric complex III, dimeric AaCcO); AaCcO dimer at 3.4 Å

stoichiometry N: 2
Substance: cytochrome c oxidase from Aquifex aeolicus (AaCcO), protomer of subunits CoxA2, CoxB2 and IIa (from UniProt O67937 1-592) (complex)
